Measured values taken from PMC3240985.

Substrate: O=C(O)[C@@H](COP(=O)(O)O)O[C@H]1O[C@H](CO)[C@@H](O)[C@H](O)[C@H]1O
Experiment: purified protein
Conditions: pH 7.5; 37.0 °C

B1: mGpgP (Rv2419c), recombinant GpgP from M. tuberculosis (Mycobacterium tuberculosis H37Rv) (protein)
chain: MRARRLVMLRHGQTDYNVGSRMQGQLDTELSELGRTQAVAAAEVLGKRQPLLIVSSDLRRAYDTAVKLGERTGLVVRVDTRLRETHLGDWQGLTHAQIDADAPGARLAWREDATWAPHGGESRVDVAARSRPLVAELVASEPEWGGADEPDRPVVLVAHGGLIAALSAALLKLPVANWPALGGMGNASWTQLSGHWAPGSDFESIRWRLDVWNASAQVSSDVL
  Km: 350 ± 30 µM
